Measurements taken from US20240091260A1 (FRED HUTCHINSON CANCER CENTER, published 2024).

How the values were obtained:
[1] = target: T1, PRAME … (ALY) peptide in complex with HLA-A*0201 (HLA-A2) (human); assay: flow cytometry on THP-1 cells, against isotype control
T1 construct: whole, on cells; Naturally processed and presented on PRAME+/HLA-A2+ cells (THP-1, OCI-AML2, RS4;11 HLA-A2+, primary AML blasts, SK-N-SH); no recombinant complex was used; also called PRAME ALY/HLA-A2; PRAME/HLA-A2 complex
Method: (§1) Flow cytometry of xenograft cells. PE-conjugated Pr20 antibody was used to confirm PRAME expression on target cell lines and primary patient AML samples. Cell lines and primary samples were washed in 2% FBS in PBS, blocked with 20 ug/mL Fc receptor block (BD Pharmingen, catalog no. 564219) in PBS then stained with PE-conjugated anti-human Pr20 antibody and APC-conjugated HLA-A2 antibody for 20 minutes on ice. Labeled cells were washed with PBS and resuspended in 2% FBS/PBS prior to flow cytometric analysis.

[2] = target: T1, PRAME … (ALY) peptide in complex with …; assay: flow cytometry on OCI-AML2 cells, against isotype control
Method: as §1

B1: Pr20 monoclonal antibody (antibody, V domains shown)
VH: QVQLVQSGAEVRKPGASVKVSCKASGGTFSSYAISWVRQAPGQGLEWMGRIIPILGIANYAQKFQGRVTITADKSTSTAYMELSSLRSEDTAVYYCARHYGQWWDYWGQGTLVTVSS
VL: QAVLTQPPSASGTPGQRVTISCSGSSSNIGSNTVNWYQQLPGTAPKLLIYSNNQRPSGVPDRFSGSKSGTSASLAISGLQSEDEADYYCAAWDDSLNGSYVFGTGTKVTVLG
notes: also called Pr20 mAb; Pr20 antibody
[1]
  MFI (fold change to isotype control): 2.75 fold
[2]
  MFI (fold change to isotype control): 5 fold
